These are literature values, as cited in publication PMC8666702 (Hypertension (Dallas, Tex. : 1979), 2021).

For data set [1], the system named is insulin degrading enzyme (IDE).
The test system of data set [2] is neprilysin (NEP).

Regarding atrial natriuretic peptide [ANP], the “Degradation by insulin degrading enzyme (IDE)” value in data set [1] is on record as “rapid degradation”. Also, in data set [2], the “Degradation by neprilysin (NEP)” value is given as “rapid degradation”.
